Laboratory results from patent publication US20150125397A1, “DUAL SPECIFIC BINDING PROTEINS DIRECTED AGAINST IMMUNE CELL RECEPTORS AND AUTOANTIGENS” (ABBVIE INC., priority 2013, published 2015).

B1: DVD3759: DVD-Ig: VD1 mIgM (B7.6), SL linker, VD2 DNA(PA4); heavy SEQ ID NO 64, light 65 (antibody)
heavy: QVQLKESGPGLVKPSLTLSLTCTVSGFSLNGYGVIWVRQPPGKGLEWMGVIWGNGNTNYNSTLKSRLSISRDTSKSQVFLKMNNLQTEDTAMYFCARSENYYSSPGYFAYWGQGTLVTVSSASTKGPEVQLVESGGGLVKPGGSLKLSCVASGFTFSTYAMSWVRQTPTKRLEWVATISRGGVSTYYPDTVKGRFTISRDNAKNTLYLQMSSLRSEDTAMYYCARPPTIVTTWFAYWGQGTLVTVSS
light: NTVMTQSPTSMFISVGDRVTMNCKASQNVGSDVDWYQQKTGQSPKLLISGTSNRYTGVPDRFTGSGSGTDFTLTISNMQAEDLAVYYCLQYNYNPTFGAGTKLELKRTVAAPSVFIFPPDVVMTQTPLSLPVSLGDQASISCRSSQSLVHSNGNTYLHWYLQKPGQSPKLLIYKVSNRFSGVPDRFSGSGSGTDFTLKISRVEAEDLGAYFCSQSTHVPYTFGGPTRLEIKR
B2: DVD3754: DVD-Ig: VD1 DNA(PA4), SL linker, VD2 mIgM (B7.6); heavy SEQ ID NO 54, light 55 (antibody)
heavy: EVQLVESGGGLVKPGGSLKLSCVASGFTFSTYAMSWVRQTPTKRLEWVATISRGGVSTYYPDTVKGRFTISRDNAKNTLYLQMSSLRSEDTAMYYCARPPTIVTTWFAYWGQGTLVTVSSASTKGPQVQLKESGPGLVKPSLTLSLTCTVSGFSLNGYGVIWVRQPPGKGLEWMGVIWGNGNTNYNSTLKSRLSISRDTSKSQVFLKMNNLQTEDTAMYFCARSENYYSSPGYFAYWGQGTLVTVSS
light: DVVMTQTPLSLPVSLGDQASISCRSSQSLVHSNGNTYLHWYLQKPGQSPKLLIYKVSNRFSGVPDRFSGSGSGTDFTLKISRVEAEDLGAYFCSQSTHVPYTFGGPTRLEIKRTVAAPSVFIFPPNTVMTQSPTSMFISVGDRVTMNCKASQNVGSDVDWYQQKTGQSPKLLISGTSNRYTGVPDRFTGSGSGTDFTLTISNMQAEDLAVYYCLQYNYNPTFGAGTKLELKR

Assays:
[1] = test system: wild type (WT) primary B cells; experiment: CFSE dilution / TO-PRO-3 FACS of wild type B cells (Example 4); assay type: cell-based, mouse; conditions: 72 hours, FIG. 4
Method: (§1) Primary murine B cells were purified by positive selection as described above. For cultures >48 hours old, proliferation was quantified by carboxyfluorescein diacetate, succinimidyl ester (CFSE) dilution and cell death by TO-PRO-3 binding. To label the cells with CFSE, the cells were first washed 2 times with PBS. Next, the stock of CFSE was diluted to 10 μM in PBS and the cells were brought to 1×10^7 cells/ml. The cells were mixed at a 1:1 ratio with 10 μM CFSE and mixed gently for 2 minutes. The CFSE labeling reaction was stopped by adding heat inactivated fetal calf serum equal in volume to the starting volume for the cell suspension. The cells were washed two times with media and resuspended to 1-4×10^6 cells/ml and were incubated with 0.5 μg/ml DVD-Ig proteins (DVD3759 and DVD3754) or antibodies, with or with out 0.05 μg/ml Blys. Proliferation was measured by fluorophore dilution at 60-72 hours by flow cytometry. […]
To determine if IRAK4 kinase activity is required for activation and/or death induced TLR9 via DVD3759, either wild type (WT), IRAK2 knock out (IRAK2KO) or IRAK 4 knock-in (IRAK4 KI) primary B cells were purified and tested in a method similar to Example 2.7. […] After 72 hours, cells were stained with 500 nM of the cell permeable DNA stain TOP-RO-3 and analyzed by FACS. Cell division was determined by dilution of CFSE and dead cells were identified by staining with TOP-RO-3.

DNA = experiment: Antinuclear antibody (ANA) test; assay type: binding; set-up: key to ANA score, relative result: (X)-(XXX) indicates relative results; (XX): (X)-(XXX) indicates relative results; (X)-(XXX) indicates relative results; conditions: for ANA score / ANA score, relative result: ANA staining at 10 μg/ml
Method: The cloned BWR4 and PA4 antibodies as well as the DVD-Ig proteins were tested for ANA reactivity using the ANA test kit. Briefly, the DVD-Ig proteins and antibodies were diluted to […] in blocking buffer (1% BSA in PBS). The DVD-Ig proteins and antibodies were added to separate wells of an ANA slide at 50 μl/well and incubated in a moist chamber for 2 hours at room temperature (RT). The wells were then washed 3× with PBS. To detect bound antibodies, Alexa Fluor 488 conjugated goat α-human IgG (α-hIgG) was then added at a dilution of 1:1,000 and the slide incubated in a moist chamber for 1 hour. Unbound detecting antibody was removed by immersing the slide in a jar containing PBS and incubating for 10 minutes at RT with gentle rocking. The prior step was repeated 2× and 10 μl of Prolong® Gold Antifade was added to each well and a 24 mm×60 mm #1 cover glass seated on top. The covered slide was incubated overnight at RT and then sealed by applying clear nail polish to the edges. Binding of the DVD-Ig proteins and antibodies to the slides was assessed by fluorescence microscopy.
DVD-Ig proteins DVD3751-DVD3760 were characterized by antinuclear antibody (ANA) staining at 10 μg/ml according to the method of Example 2.4.
ANA: HEp-2 human tissue culture substrate slides were incubated with 5 μg/ml of the anti-DNA-IgG2a or the DVD-Ig™ binding protein for 2 hours at RT. The slides were washed and bound antibodies were detected with Alexa-488 goat anti-human antibody or DyLight 488 goat anti-mouse antibody.

Primary murine B cells = experiment: CFSE dilution / Sytox Blue FACS of primary murine B cells; assay type: cell-based, mouse; conditions: 72 hours, FIG. 3
Method: as §1, with “The cells were washed two times with media and resuspended to 1-4×10^6 cells/ml and were incubated with 0.5 μg/ml DVD-Ig proteins (DVD3759 and DVD3754) or antibodies, with or with out 0.05 μg/ml Blys.” left out
Primary murine B cells were labeled and prepared as in Example 2.7 and stimulated with either media alone, […] of TLR9 ligand CpG oligodeoxynucleotide (ODN) 1826, […] of the mouse anti-chromatin autoantibody PL2-3 or […] DVD3759 in the presence or absence of […] of the B cell survival factor BLyS. After 72 hours, cells were stained with 1 μM of the cell permeable DNA stain Sytox Blue and analyzed by fluorescence activated cell sorting (FACS). Cell division was determined by dilution of CFSE and dead cells were identified by staining with Sytox Blue.

[2] = test system: RF Tlr9−/− or BALB/c Tlr9−/− B cells; experiment: Proliferation of B220+ B cells, Tlr9-/-; assay type: cell-based, mouse; conditions: 3H-thymidine 24 hours, CFSE 72 hours; FIG. 9
Method: (§2) Proliferation of B220+ B cells: B cells were purified by magnetic bead separation using CD45R/B220-conjugated magnetic particles (BD Biosciences, San Jose, Calif., USA) and stimulated as described previously (Nundel et al. (2013) J. Leukoc. Biol. 94:865-875) with 15 μg/ml goat anti-mouse IgM F(ab′)2 (Jackson ImmunoResearch), ODN1826 (CpG; Idera Pharmaceuticals), anti-DNA-mAb (Leadbetter et al. (2002) Nature 416:603-607), or DVD-Ig proteins (1 μg/ml). B cell proliferation was assessed by ^3H-thymidine (Amersham Biosciences, Piscataway, N.J., USA) incorporation at 24 hours post-stimulation. For long-term proliferation assays, B220-purified B cells were labeled with a final concentration of 2.5 μM CFSE (Life Technologies) in PBS for 2 minutes. The cells were then washed and cultured for 72 hours in the presence of BLyS (Human Genome Sciences).
(§3) FACS for B cells: Multicolor flow cytometry analysis was carried out using a BD LSR II with DIVA software (BD Biosciences). Analysis was conducted with FlowJo software (Tree Star, Ashland, Oreg., USA) Immature and mature B cell ratios were determined using Pacific Blue-B220 and APC-AA4.1 (eBioscience). Dead cells and debris were excluded by forward- and side-scatter. Proliferation was assessed by CFSE dilution. Cell death was ascertained using the DNA stain TO-PRO-3 (Life Technologies) at a final concentration of 20 nM.

RF B cells = experiment: Proliferation of B220+ B cells, RF (AM14); assay type: cell-based, mouse
Method: as §2, §3

Row | Molecule | effect of addition of BLyS on cell death ([1]; 0.05 μg/ml BLyS) | cell division (CFSE dilution) and cell death (TO-PRO-3) ([1]; 0.5 μg/ml) | ANA score (DNA) | ANA score, relative result (DNA) | effect of addition of BLyS on cell death (Primary murine B cells; 0.05 mg/ml BLyS) | cell division (CFSE dilution) and cell death (Sytox Blue) (Primary murine B cells; absence of BLyS) | proliferation of Tlr9−/− B cells [2] | level of ANA staining (DNA; 10 μg/ml, among DVD3751-DVD3760) | ANA, immunofluorescent HEp-2 staining (DNA; Example 6, 5 μg/ml, FIG. 8C) | level of activation compared with anti-DNA mAb (RF B cells; FIG. 9A,B) | activation / proliferation of RF B cells (RF B cells; Tlr9+/+, 3H-thymidine 24 hours, CFSE 72 hours, FIG. 9)
1 | B1 | could be rescued | induced several rounds of division followed by post-proliferative cell death | 3.5 | (XX) | could be rescued | induced several rounds of division followed by post-proliferative cell death | – | – | – | – | –
2 | B2 | – | – | 4.5 | (XXX) | – | – | not RF Tlr9^−/− or BALB/c Tlr9^−/− B cells | highest level of staining | high ANA score | comparable | induced both RF and non-Tg BALB/c B cells
